Results taken from US20060241051A1 (Takeda / Millennium, published 2006).
Numbered stars: 1 amine (or outer) side, 2 acyl side, 3 side chain; on linkers, the order of the positions; unused ones are H or OH. Square brackets hold non-standard residues; d marks the D form. Primed or numbered codes have the meaning given here. Ends that are not written are not given here. * marks the point of attachment. Trp(For)″ = Trp(CHO), O=Cn1cc(C[C@H](N[*:1])C(=O)[*:2])c2ccccc21; Phe(3-CF3) = N[C@@H](Cc1cccc(C(F)(F)F)c1)C(=O)O; Phe(3,4-F2) = N[C@@H](Cc1ccc(F)c(F)c1)C(=O)O; Phe(4-CN) = N#Cc1ccc(C[C@H](N)C(=O)O)cc1; Phe(4-Cl) = N[C@@H](Cc1ccc(Cl)cc1)C(=O)O; Phe(3-F) = N[C@@H](Cc1cccc(F)c1)C(=O)O; Phe(4-F) = N[C@@H](Cc1ccc(F)cc1)C(=O)O; Phe(2-F) = N[C@@H](Cc1ccccc1F)C(=O)O; Arg(Me) = CNC(=N)NCCC[C@H](N)C(=O)O; Fmoc = O=C(OCC1c2ccccc2-c2ccccc21)*; 2Pal = N[C@@H](Cc1ccccn1)C(=O)O; 3Pal = N[C@@H](Cc1cccnc1)C(=O)O; Cha = N[C@@H](CC1CCCCC1)C(=O)O; Arg(Et)′ = not defined here; Dab = NCC[C@H](N)C(=O)O; azaGly = NNC(=O)O

B1: Compound No. 285: [D-Tyr1,Pya(2) 3,AzaGly7,Arg(Me)9]MS10 (peptide)
peptide: [dY]N[2Pal]NSF[azaGly]L[Arg(Me)]F-NH2
modifications: N-terminus assumed
SMILES: CNC(=N)NCCC[C@H](NC(=O)[C@H](CC(C)C)NC(=O)NNC(=O)[C@H](Cc1ccccc1)NC(=O)[C@H](CO)NC(=O)[C@H](CC(N)=O)NC(=O)[C@H](Cc1ccccn1)NC(=O)[C@H](CC(N)=O)NC(=O)[C@H](N)Cc1ccc(O)cc1)C(=O)N[C@@H](Cc1ccccc1)C(N)=O
B2: Compound No. 275: des(1-2)-Acetyl-[Arg3,AzaGly7,Arg(Me)9]MS10 (peptide)
peptide: Ac-RNSF[azaGly]L[Arg(Me)]F-NH2
SMILES: CNC(=N)NCCC[C@H](NC(=O)[C@H](CC(C)C)NC(=O)NNC(=O)[C@H](Cc1ccccc1)NC(=O)[C@H](CO)NC(=O)[C@H](CC(N)=O)NC(=O)[C@H](CCCNC(=N)N)NC(C)=O)C(=O)N[C@@H](Cc1ccccc1)C(N)=O
B3: Compound No. 276: des(1-2)-Acetyl-[Thr3,AzaGly7,Arg(Me)9]MS10 (peptide)
peptide: Ac-TNSF[azaGly]L[Arg(Me)]F-NH2
SMILES: CNC(=N)NCCC[C@H](NC(=O)[C@H](CC(C)C)NC(=O)NNC(=O)[C@H](Cc1ccccc1)NC(=O)[C@H](CO)NC(=O)[C@H](CC(N)=O)NC(=O)[C@@H](NC(C)=O)[C@@H](C)O)C(=O)N[C@@H](Cc1ccccc1)C(N)=O
B4: Compound No. 251: [D-Tyr1,Pya(3) 3,AzaGly7,Arg(Me)9]MS10 (peptide)
peptide: [dY]N[3Pal]NSF[azaGly]L[Arg(Me)]F-NH2
modifications: N-terminus assumed
SMILES: CNC(=N)NCCC[C@H](NC(=O)[C@H](CC(C)C)NC(=O)NNC(=O)[C@H](Cc1ccccc1)NC(=O)[C@H](CO)NC(=O)[C@H](CC(N)=O)NC(=O)[C@H](Cc1cccnc1)NC(=O)[C@H](CC(N)=O)NC(=O)[C@H](N)Cc1ccc(O)cc1)C(=O)N[C@@H](Cc1ccccc1)C(N)=O
B5: Compound No. 145: des(1-2)-Fmoc-[Arg(Me)9]MS10 (peptide)
peptide: Fmoc-WNSFGL[Arg(Me)]F-NH2
SMILES: CNC(=N)NCCC[C@H](NC(=O)[C@H](CC(C)C)NC(=O)CNC(=O)[C@H](Cc1ccccc1)NC(=O)[C@H](CO)NC(=O)[C@H](CC(N)=O)NC(=O)[C@H](Cc1c[nH]c2ccccc12)NC(=O)OCC1c2ccccc2-c2ccccc21)C(=O)N[C@@H](Cc1ccccc1)C(N)=O

These binders were tested against T1, human OT7T175 (metastin receptor) (human, UniProt Q969F8 1-398) (assay: FMAT competition with Cy-5-labeled metastin (40-54), hOT7T175-expressed CHO cells).
T1 construct: expressed on CHO cells (hOT7T175-expressed CHO cells; hOT7T175/CHO); also called hOT7T175; h0T7T175
T1 sequence (Q969F8 whole entry L364H): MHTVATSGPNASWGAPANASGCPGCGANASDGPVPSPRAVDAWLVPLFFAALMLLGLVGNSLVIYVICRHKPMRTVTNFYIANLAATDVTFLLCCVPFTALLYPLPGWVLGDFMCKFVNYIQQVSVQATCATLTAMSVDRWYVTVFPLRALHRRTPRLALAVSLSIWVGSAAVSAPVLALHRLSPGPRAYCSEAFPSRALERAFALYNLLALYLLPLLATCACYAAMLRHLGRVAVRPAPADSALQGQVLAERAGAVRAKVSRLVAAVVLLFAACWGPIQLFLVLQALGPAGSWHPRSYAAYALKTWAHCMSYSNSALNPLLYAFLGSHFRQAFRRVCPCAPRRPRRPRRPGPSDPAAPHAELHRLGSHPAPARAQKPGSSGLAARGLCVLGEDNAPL
Protocol: h0T7T175-Expressed CHO cells were cultured in MEM-α medium (nucleic acid-free) containing 10% dialyzed serum. The medium was removed and the adherent cells were washed with PBS. Then, PBS containing 5 mM EDTA was added and the cells were scraped from a flask with a cell scraper. […] To each well of a 96-Well Black Clear Bottom Plate (Applied Biosystems, Inc.), 10 μL of assay buffer containing 1% dimethylsulfoxide was added to examine total binding, 10 μL of 10 μM non-labeled peptide (having the same amino acid sequence as that of the labeled one) solution diluted with assay buffer to examine non-specific binding, and 10 μL of a test compound diluted with assay buffer to examine the binding inhibition activity of the test compound, respectively. Furthermore, 90 μL each of the cell suspension was dispensed to each well. […] The specific binding is a value obtained by subtracting the non-specific binding from the total binding.
YNWNSF[azaGly]L[Arg(Me)]F-NH2 (also: Tyr1-Asn2 bond reduced (CH2NH)) [Compound No. 299: [1Ψ2,CH2NH,AzaGly7,Arg(Me)9]-MS10] was tested, and the IC50 was 1.2 nM.
In the case of YNWNSFGLR(Et)F-NH2 [Compound No. 220: [Arg(Et)9]MS10], the IC50 is reported as 330 nM.
For B1, the IC50 was 40 nM.
With YNWNSFGL[Dab]F-NH2 [Compound No. 313: [Dab9]MS10] the IC50 was 690 nM.
YNWNSFGLR[Phe(4-CN)]-NH2 [Compound No. 77: [Phe(4CN)10]MS10] showed an IC50 of 7.4 nM.
For B2, the IC50 was 410 nM.
With B3 the IC50 was 480 nM.
Work on YNWNSFGLRX (Pya(3)10; C-terminal amide) [Compound No. 60: [Pya(3)10]MS10] yielded an IC50 of 170 nM.
In the case of YNWNSFGLR[Phe(2-F)]-NH2 [Compound No. 19: [Phe(2F)10]MS10], the IC50 is reported as 8.6 nM.
YNWNSFGLR[Phe(3,4-F2)]-NH2 [Compound No. 198: [Phe(3,4F2)10]MS10] gave an IC50 of 170 nM.
With YNWNSFGLR[Phe(4-F)]-NH2 [Compound No. 61: [Phe(4F)10]MS10] the IC50 was 13 nM.
[dW]NSFGL[Arg(Me)]F-NH2 [Compound No. 223: des(1-2)-[D-Trp3,Arg(Me)9]MS10] gave an IC50 of 760 nM.
Binder [dY]NWNSFGL[Arg(Me)]F-NH2 (also: Gly7-Leu8 bond reduced (CH2NH)) [Compound No. 307: [7Ψ8,CH2NH,D-Tyr1,Arg(Me)9]MS10] has an IC50 of 64 nM.
Binder [dY]N[dW]NSF[azaGly]LR(Me)F-NH2 [Compound No. 236: (D-Tyr1,D-Trp3,AzaGly7,Arg(Me)9]MS10] has an IC50 of 42 nM.
[dY]N[Cha]NS[Cha]GL[Arg(Me)]F-NH2 [Compound No. 181: [D-Tyr1,Cha3,6,Arg(Me)9]MS10] gave an IC50 of 19 nM.
With YNWNSFGL[Arg(Me)]F-NH2 [Compound No. 82: [Arg(Me)9]MS10] the IC50 was 4.1 nM.
For [dY]NWNSFGL[Arg(Et)′]F-NH2 [Compound No. 192: [D-Tyr1,Arg(Et)9]MS10], the IC50 was 530 nM.
Binder YNWNYFGLRF-NH2 [Compound No. 23: [Tyr5]MS10] has an IC50 of 400 nM.
For YNWNSFGVRF-NH2 [Compound No. 107: [Val8]MS10], the IC50 was 120 nM.
In the case of [dY]N[dA]NSF[azaGly]L[Arg(Me)]F-NH2 [Compound No. 252: [D-Tyr1,D-Ala3,AzaGly7,Arg(Me)9]MS10], the IC50 is reported as 580 nM.
In the case of YNANSFGLRF-NH2 [Compound No. 67: [Ala3]MS10], the IC50 is reported as 27 nM.
With YNDNSFGLRF-NH2 [Compound No. 70: [Asp3]MS10] the IC50 was 200 nM.
LNWNSFGLRF-NH2 [Compound No. 73: [Leu1]MS10] gave an IC50 of 220 nM.
With YLWNSFGLRF-NH2 [Compound No. 59: [Leu2]MS10] the IC50 was 340 nM.
In the case of YDWNSFGLRF-NH2 [Compound No. 57: [Asp2]MS10], the IC50 is reported as 100 nM.
ANWNSFGLRF-NH2 [Compound No. 72: [Ala1]MS10] gave an IC50 of 540 nM.
YNWNSFGLR[Trp(For)″]-NH2 (also called [Trp(CHO)10]MS10) [Compound No. 186: [Trp(For)10]MS10] was tested, and the IC50 was 460 nM.
Work on YNSNSFGLRF-NH2 [Compound No. 69: [Ser3]MS10] yielded an IC50 of 83 nM.
[dY]NPNSF[azaGly]L[Arg(Me)]F-NH2 [Compound No. 253: [D-Tyr1,Pro3,AzaGly7,Arg(Me)9]MS10] showed an IC50 of 27 nM.
YNWNSYGLRF-NH2 [Compound No. 150: [Tyr6]MS10] gave an IC50 of 320 nM.
Work on [dY]NTNSF[azaGly]L[Arg(Me)]F-NH2 [Compound No. 221: [D-Tyr1,Thr3,AzaGly7,Arg(Me)9]MS10] yielded an IC50 of 95 nM.
With [dY]NSNSF[azaGly]L[Arg(Me)]F-NH2 [Compound No. 191: [D-Tyr1,Ser3,AzaGly7,Arg(Me)9]MS10] the IC50 was 300 nM.
YNLNSFGLRF-NH2 [Compound No. 68: [Leu3]MS10] was tested, and the IC50 was 7.7 nM.
YYWNSFGLRF-NH2 [Compound No. 58: [Tyr2]MS10] was tested, and the IC50 was 16 nM.
YNWNSFGLKF-NH2 [Compound No. 44: [Lys9]MS10] gave an IC50 of 190 nM.
YNKNSFGLRF-NH2 [Compound No. 71: [Lys3]MS10] was tested, and the IC50 was 66 nM.
Work on [dY]N[dW]NSFGL[Arg(Me)]F-NH2 [Compound No. 142: [D-Tyr1,D-Trp3,Arg(Me)9]MS10] yielded an IC50 of 26 nM.
Work on B4 yielded an IC50 of 87 nM.
For [dY]NWNSFGL[Arg(Me)]F-NH2 (also: Phe6-Gly7 bond reduced (CH2NH)) [Compound No. 308: [6Ψ7, CH2NH,D-Tyr1,Arg(Me)9]MS10], the IC50 was 350 nM.
[dY][dN][Cha]NSF[azaGly]L[Arg(Me)]F-NH2 [Compound No. 283: [D-Tyr1,D-Asn2,Cha3,AzaGly7,Arg(Me)9]MS10] gave an IC50 of 0.69 nM.
Work on YNWNSFGLR[Phe(3-CF3)]-NH2 [Compound No. 200: [Phe(3CF3)10]MS10] yielded an IC50 of 340 nM.
YNWNSFGLR[Phe(4-Cl)]-NH2 [Compound No. 130: [Phe(4Cl)10]MS10] was tested, and the IC50 was 42 nM.
For YNWNSFGLR[Phe(3-F)]-NH2 [Compound No. 197: [Phe(3F)10]MS10], the IC50 was 170 nM.
Binder B5 has an IC50 of 120 nM.
With [dY]NWNSF[azaGly]L[Arg(Me)][Phe(4-F)]-NH2 [Compound No. 318: [D-Tyr1,AzaGly7,Arg(Me)9,Phe(4F)10]MS10] the IC50 was 0.99 nM.
{D‑Glucuronyl}-NSF[azaGly]L[Arg(Me)]F-NH2 [Compound No. 328: des(1-3)-D-Glucuronyl-[AzaGly7,Arg(Me)9]MS10] was tested, and the IC50 was 470 nM.
For NWNSFGLRF-NH2 (also called human metastin 9 (46-54)) [Compound No. 4: des(1)-MS10], the IC50 was 260 nM.
In the case of [dY]SNSFGL[Arg(Me)]F-NH2 [Compound No. 226: des(1)-[D-Tyr2,Ser3,Arg(Me)9]MS10], the IC50 is reported as 100 nM.
With [dN][dW]NSFGL[Arg(Me)]F-NH2 [Compound No. 225: des(1)-[D-Asn2,D-Trp3,Arg(Me)9]MS10] the IC50 was 410 nM.
[dY]TNSFGL[Arg(Me)]F-NH2 [Compound No. 227: des(1)-[D-Tyr2,Thr3,Arg(Me)9]MS10] was tested, and the IC50 was 48 nM.
Work on [dY]INSF[azaGly]L[Arg(Me)]F-NH2 [Compound No. 240: des(1)-[D-Tyr2,Ile3,AzaGly7,Arg(Me)9]MS10] yielded an IC50 of 17 nM.
Work on [dY]SNSF[azaGly]L[Arg(Me)]F-NH2 [Compound No. 239: des(1)-[D-Tyr2,Ser3,AzaGly7,Arg(Me)9]MS10] yielded an IC50 of 120 nM.
